Columns and labels:
Ubc9 binding to Mdm2 = molecular target: T1, Ubc9 binding to Mdm2 (Homo sapiens, UniProt Q00987); assay: In vitro binding of Ubc9 to GST-Mdm2; details: in vitro translated p19ARF and Ubc9, GST-Mdm2 1 μg
T1 construct: made in house; host or cells: GST-Mdm2: bacteria; Ubc9: in vitro translation
Protocol: FIGS. 17A and 17B. A. p19^ARF decreases Ubc9 binding to Mdm2. Bacterially expressed and purified GST-Mdm2 (1 μg) was incubated with ^35S-labeled in vitro translated p19^ARF and Ubc9 at the indicated ratios. After 30 min of incubation GSH beads bound-GST-Mdm2 were washed and separated on a 12% SDS-PAGE. Gel was dried and subjected to autoradiograph, depicting relative amounts of Ubc9 and p19^ARF bound to Mdm2. B. Bacterially expressed and purified GST-Mdm2 (1 μg) was phosphorylated by purified form of active p38 kinase as indicated. Phosphorylated or un-phosphorylated Mdm2 was incubated for 30 min with in vitro translated UbcH5b and Ubc9 (25 μl). Beads were washed and separated on a 12% SDS-PAGE. Gel was dried and exposed to X-ray film. Position of Ubc9 and UbcH5b is shown.
A prerequisite for Mdm2 sumoylation is the association of Ubc9, the SUMO conjugating enzyme, with Mdm2, which enables subsequent conjugation of SUMO-1 to Mdm2. Inhibition of Ubc9's association with Mdm2 attenuates Mdm2 sumoylation. Given the effect of p19^ARF on Mdm2 sumoylation, we proceeded to determine whether p19^ARF may alter Ubc9 binding to Mdm2. To this end we performed an in vitro binding assay, using in vitro translated p19^ARF and Ubc-9, as indicated. […] We next assessed possible changes in Ubc9 binding to Mdm2 upon its phosphorylation by p38.

Mdm2 [1] = assay: In vivo ubiquitination of Mdm2 in EJ cells (HA-Ub, Mdm2 immunoprecipitation); format: cell-based, mouse; details: forced expression in EJ p19 null cells
Excerpt: FIG. 14A-14E. A. In vitro ubiquitination of Mdm2 is inhibited by p19^ARF. GST-Mdm2 was subjected to an in vitro ubiquitination reaction using purified forms of E1, E2 and Ub-HA in the presence of ATP. Addition of bacculovirus-purified p19^ARF at the indicated concentrations blocked Mdm2 ubiquitination. Glutathione bead-coupled GST-Mdm2 in its ubiquitinated or non-ubiquitinated forms was washed and analyzed on immunoblots using antibodies to HA (upper panel). Middle panel depicts the level of Mdm2 expression and the lower panel, the level of p19^ARF added to the reaction. B. p19^ARF expression increases Mdm2 self-ubiquitination in EJ cells. EJ cells were transfected with the indicated plasmids. Cells were harvested 36 h later and proteins ([…]) were immunoprecipitated using Mdm2 antibodies (2A10). Immunoprecipitated material was washed and proteins loaded onto 10% SDS-PAGE, followed by immunoblot analysis with HA-antibodies to detect covalent HA-ubiquitin conjugation to Mdm2 (upper panel). Middle panel depicts level of immunoprecipitated Mdm2. Lower panel represents western analysis of p19^ARF expression levels. C. In vitro ubiquitination of Mdm2 in the presence of p19^ARF and protein extracts. […] The level of p53 immunoprecipitated was monitored in immunoblots using polyclonal antibodies to p53 (middle). […]

Mdm2 [2] = molecular target: Mdm2 (Homo sapiens, UniProt Q00987); assay: Co-immunoprecipitation of p19ARF forms with Mdm2; format: cell-based; parameters: expressed in transfected cells; host or cells: 293T; details: forced expression of Mdm2 and wt or Δ62 p19ARF
Chain of Mdm2 (Homo sapiens, UniProt Q00987) (Q00987 whole entry): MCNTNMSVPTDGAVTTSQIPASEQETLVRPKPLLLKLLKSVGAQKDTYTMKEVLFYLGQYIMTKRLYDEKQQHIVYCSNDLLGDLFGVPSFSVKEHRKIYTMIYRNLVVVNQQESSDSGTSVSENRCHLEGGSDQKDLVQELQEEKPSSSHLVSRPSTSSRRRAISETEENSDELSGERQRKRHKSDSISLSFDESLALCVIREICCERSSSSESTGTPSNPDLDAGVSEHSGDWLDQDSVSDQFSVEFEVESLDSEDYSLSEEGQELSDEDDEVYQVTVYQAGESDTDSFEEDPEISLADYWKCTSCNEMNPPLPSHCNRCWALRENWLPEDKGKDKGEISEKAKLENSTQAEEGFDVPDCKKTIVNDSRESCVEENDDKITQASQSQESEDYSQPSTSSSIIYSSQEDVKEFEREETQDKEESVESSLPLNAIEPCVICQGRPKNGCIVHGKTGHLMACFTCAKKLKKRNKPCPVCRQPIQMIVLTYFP

T1 sequence (Q00987 whole entry): as above

B1: p19^ARF: Mdm2-regulating protein; in vitro translated, bacculovirus-expressed or transfected (protein)
chain: MGRRFLVTVRIQRAGRPLQERVFLVKFVRSRRPRTASCALAFVNMLLRLERILRRGPHRNPGPGDDDGQRSRSSSSAQLRCRFELRGPHYLLPPGARRSAGRLPGHAGGAARVRGSAGCARCLGSPAARLGPRAGTSRHRAIFAFRWVLFVFRWVVFVYRWERRPDRRA
Ubc9 binding to Mdm2 in presence of increasing amounts of p19ARF (Ubc9 binding to Mdm2): dose dependent decrease in Ubc9 binding to Mdm2
degree of Mdm2 ubiquitination in vivo (Mdm2 [1]): noticeable increase in the degree of Mdm2 ubiquitination
complex of p19ARF form with Mdm2 (Mdm2 [2]): only the wt form in complex with Mdm2
